± gives the uncertainty stated by the source.
B1: Cullin-9, residues 2234 to 2275; numbered along this chain, Q8IWT3 (parent)
chain: KRCPSCQAPIEKNEGCLHMTCAKCNHGFCWRCLKSWKPNHKD

Variants of: B1
Assay: abundance fitness (aPCA) (normalised: wild type 0, dead -1); higher = more abundant; growth selection in yeast, the domain comes from the species named
Details: Homo sapiens

Variant	abundance fitness
KSCPSCQAPIEKNEGCLHMTCAKCNHGFCWRCLKSWKPNHKD [R2S]	0.077 ± 0.092
KWCPSCQAPIEKNEGCLHMTCAKCNHGFCWRCLKSWKPNHKD [R2W]	-0.279 ± 0.11
KPCPSCQAPIEKNEGCLHMTCAKCNHGFCWRCLKSWKPNHKD [R2P]	-0.209 ± 0.13
KYCPSCQAPIEKNEGCLHMTCAKCNHGFCWRCLKSWKPNHKD [R2Y]	0.242 ± 0.13
KVCPSCQAPIEKNEGCLHMTCAKCNHGFCWRCLKSWKPNHKD [R2V]	-0.2 ± 0.094
KTCPSCQAPIEKNEGCLHMTCAKCNHGFCWRCLKSWKPNHKD [R2T]	0.147 ± 0.1
KRCPPCQAPIEKNEGCLHMTCAKCNHGFCWRCLKSWKPNHKD [S5P]	-0.401 ± 0.1
KRCPQCQAPIEKNEGCLHMTCAKCNHGFCWRCLKSWKPNHKD [S5Q]	0.31 ± 0.095
KRCPACQAPIEKNEGCLHMTCAKCNHGFCWRCLKSWKPNHKD [S5A]	0.462 ± 0.074
KRCPKCQAPIEKNEGCLHMTCAKCNHGFCWRCLKSWKPNHKD [S5K]	0.489 ± 0.11
KRCPGCQAPIEKNEGCLHMTCAKCNHGFCWRCLKSWKPNHKD [S5G]	0.56 ± 0.07
KRCPWCQAPIEKNEGCLHMTCAKCNHGFCWRCLKSWKPNHKD [S5W]	0.313 ± 0.085
KRCPYCQAPIEKNEGCLHMTCAKCNHGFCWRCLKSWKPNHKD [S5Y]	-0.291 ± 0.17
KRCPMCQAPIEKNEGCLHMTCAKCNHGFCWRCLKSWKPNHKD [S5M]	0.395 ± 0.11
KRCPLCQAPIEKNEGCLHMTCAKCNHGFCWRCLKSWKPNHKD [S5L]	-0.121 ± 0.081
KRCPVCQAPIEKNEGCLHMTCAKCNHGFCWRCLKSWKPNHKD [S5V]	0.259 ± 0.078
KRCPDCQAPIEKNEGCLHMTCAKCNHGFCWRCLKSWKPNHKD [S5D]	-0.147 ± 0.12
KRCPTCQAPIEKNEGCLHMTCAKCNHGFCWRCLKSWKPNHKD [S5T]	0.224 ± 0.087
KRCPHCQAPIEKNEGCLHMTCAKCNHGFCWRCLKSWKPNHKD [S5H]	-0.336 ± 0.32
KRCPECQAPIEKNEGCLHMTCAKCNHGFCWRCLKSWKPNHKD [S5E]	0.496 ± 0.091

Variant	abundance fitness
KRCPCCQAPIEKNEGCLHMTCAKCNHGFCWRCLKSWKPNHKD [S5C]	0.137 ± 0.1
KRCPICQAPIEKNEGCLHMTCAKCNHGFCWRCLKSWKPNHKD [S5I]	-0.142 ± 0.23
KRCPSCVAPIEKNEGCLHMTCAKCNHGFCWRCLKSWKPNHKD [Q7V]	-0.198 ± 0.11
KRCPSCDAPIEKNEGCLHMTCAKCNHGFCWRCLKSWKPNHKD [Q7D]	0.538 ± 0.24
KRCPSCEAPIEKNEGCLHMTCAKCNHGFCWRCLKSWKPNHKD [Q7E]	0.089 ± 0.11
KRCPSCGAPIEKNEGCLHMTCAKCNHGFCWRCLKSWKPNHKD [Q7G]	0.258 ± 0.079
KRCPSCPAPIEKNEGCLHMTCAKCNHGFCWRCLKSWKPNHKD [Q7P]	-0.18 ± 0.12
KRCPSCSAPIEKNEGCLHMTCAKCNHGFCWRCLKSWKPNHKD [Q7S]	-0.406 ± 0.17
KRCPSCTAPIEKNEGCLHMTCAKCNHGFCWRCLKSWKPNHKD [Q7T]	-0.073 ± 0.28
KRCPSCCAPIEKNEGCLHMTCAKCNHGFCWRCLKSWKPNHKD [Q7C]	-0.025 ± 0.11
KRCPSCAAPIEKNEGCLHMTCAKCNHGFCWRCLKSWKPNHKD [Q7A]	-0.064 ± 0.15
KRCPSCIAPIEKNEGCLHMTCAKCNHGFCWRCLKSWKPNHKD [Q7I]	-0.346 ± 0.34
KRCPSCQAKIEKNEGCLHMTCAKCNHGFCWRCLKSWKPNHKD [P9K]	-0.349 ± 0.15
KRCPSCQAEIEKNEGCLHMTCAKCNHGFCWRCLKSWKPNHKD [P9E]	0.051 ± 0.092
KRCPSCQAQIEKNEGCLHMTCAKCNHGFCWRCLKSWKPNHKD [P9Q]	0.014 ± 0.1
KRCPSCQACIEKNEGCLHMTCAKCNHGFCWRCLKSWKPNHKD [P9C]	-0.074 ± 0.13
KRCPSCQAVIEKNEGCLHMTCAKCNHGFCWRCLKSWKPNHKD [P9V]	-0.277 ± 0.098
KRCPSCQATIEKNEGCLHMTCAKCNHGFCWRCLKSWKPNHKD [P9T]	-0.107 ± 0.12
KRCPSCQAIIEKNEGCLHMTCAKCNHGFCWRCLKSWKPNHKD [P9I]	-0.53 ± 0.41
KRCPSCQASIEKNEGCLHMTCAKCNHGFCWRCLKSWKPNHKD [P9S]	-0.347 ± 0.095

Variant	abundance fitness
KRCPSCQADIEKNEGCLHMTCAKCNHGFCWRCLKSWKPNHKD [P9D]	-0.267 ± 0.42
KRCPSCQAMIEKNEGCLHMTCAKCNHGFCWRCLKSWKPNHKD [P9M]	0.056 ± 0.1
KRCPSCQALIEKNEGCLHMTCAKCNHGFCWRCLKSWKPNHKD [P9L]	-0.39 ± 0.089
KRCPSCQANIEKNEGCLHMTCAKCNHGFCWRCLKSWKPNHKD [P9N]	-0.026 ± 0.26
KRCPSCQAFIEKNEGCLHMTCAKCNHGFCWRCLKSWKPNHKD [P9F]	-0.373 ± 0.21
KRCPSCQARIEKNEGCLHMTCAKCNHGFCWRCLKSWKPNHKD [P9R]	-0.048 ± 0.087
KRCPSCQAHIEKNEGCLHMTCAKCNHGFCWRCLKSWKPNHKD [P9H]	-0.291 ± 0.16
KRCPSCQAAIEKNEGCLHMTCAKCNHGFCWRCLKSWKPNHKD [P9A]	-0.198 ± 0.09
KRCPSLQAPIEKNEGCLHMTCAKCNHGFCWRCLKSWKPNHKD [C6L]	-0.295 ± 0.12
KRCPSSQAPIEKNEGCLHMTCAKCNHGFCWRCLKSWKPNHKD [C6S]	-0.511 ± 0.12
KRCPSGQAPIEKNEGCLHMTCAKCNHGFCWRCLKSWKPNHKD [C6G]	-0.126 ± 0.079
KRCPSHQAPIEKNEGCLHMTCAKCNHGFCWRCLKSWKPNHKD [C6H]	-0.222 ± 0.11
KRCPSRQAPIEKNEGCLHMTCAKCNHGFCWRCLKSWKPNHKD [C6R]	-0.612 ± 0.092
KRCPSWQAPIEKNEGCLHMTCAKCNHGFCWRCLKSWKPNHKD [C6W]	-0.615 ± 0.15
KRCPSDQAPIEKNEGCLHMTCAKCNHGFCWRCLKSWKPNHKD [C6D]	-0.091 ± 0.13
KRCPSQQAPIEKNEGCLHMTCAKCNHGFCWRCLKSWKPNHKD [C6Q]	-0.587 ± 0.12
KRCPSPQAPIEKNEGCLHMTCAKCNHGFCWRCLKSWKPNHKD [C6P]	-0.639 ± 0.15
KRCPSAQAPIEKNEGCLHMTCAKCNHGFCWRCLKSWKPNHKD [C6A]	-0.029 ± 0.096
KRCPSIQAPIEKNEGCLHMTCAKCNHGFCWRCLKSWKPNHKD [C6I]	-0.419 ± 0.18
KRCPSMQAPIEKNEGCLHMTCAKCNHGFCWRCLKSWKPNHKD [C6M]	-0.447 ± 0.12
